Data set [1] has as its target T1, GST-RBD WT (Influenza A virus A/Brevig …, UniProt Q99AU3 1-85). The data set is described as follows: EMSA (fEMSA); […], pH 8.0, 1 h at room temperature; […]. As to conditions: protein: recombinant; tags: GST; chain copies: 2; label: 5'-FAM (FITC) on both strands; blunt. (In EMSA bound probe runs differently from free probe, usually more slowly.)
For data set [2], the target named is T2, His-GST-ED WT (Influenza A virus A/Brevig …, UniProt Q99AU3 86-230). The data set is described as above. As to conditions: protein: recombinant; tags: N-term 10xHis-GST; chain copies: 3; label: 5'-FAM (FITC) on both strands; blunt.
T2 sequence (Q99AU3 86-230): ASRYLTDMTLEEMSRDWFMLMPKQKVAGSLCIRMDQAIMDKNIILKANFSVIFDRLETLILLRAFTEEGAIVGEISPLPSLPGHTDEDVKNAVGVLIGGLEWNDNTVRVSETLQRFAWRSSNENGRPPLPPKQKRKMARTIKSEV
In data set [3] the target is T3, Udorn His-GST-ED WT (Influenza A virus A/Udorn/307/1972, UniProt P03495 86-237). The data set is described as above. The note with it: protein: recombinant; tags: N-term 10xHis-GST; label: 5'-FAM (FITC) on both strands; blunt.
T3 sequence (P03495 86-237): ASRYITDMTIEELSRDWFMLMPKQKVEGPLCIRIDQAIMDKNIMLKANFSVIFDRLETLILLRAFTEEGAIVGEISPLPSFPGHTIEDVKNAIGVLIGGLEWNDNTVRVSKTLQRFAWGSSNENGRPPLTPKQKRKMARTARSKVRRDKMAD
Data set [4] deals with T4, His-GST-RBD WT (Influenza A virus A/Brevig …, UniProt Q99AU3 1-85). The data set is described as above. The note with it: protein: recombinant; tags: N-term 10xHis-GST; chain copies: 2; label: 5'-FAM (FITC) on both strands; blunt.
T4 sequence (Q99AU3 1-85): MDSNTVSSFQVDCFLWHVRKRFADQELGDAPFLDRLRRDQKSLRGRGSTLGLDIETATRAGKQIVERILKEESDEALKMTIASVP
Data set [5] addresses T5, His-RBD WT (Influenza A virus A/Brevig …, UniProt Q99AU3 1-85). The data set is described as above. The note with it: protein: recombinant; tags: N-term 10xHis; chain copies: 2; label: 5'-FAM (FITC) on both strands; blunt.
Data set [6] has as its target T1, GST-RBD WT. Briefly: fluorescence polarization; […], pH 8.0, 1 h at room temperature; […]. As to conditions: protein: recombinant; tags: GST; chain copies: 2; label: 5'-FAM (FITC) on both strands; blunt. (In general: Fluorescence polarisation rises when a labelled molecule tumbles more slowly, as on binding a larger partner.)
The target in data set [7] is T2, His-GST-ED WT. The description is as above. As to conditions: protein: recombinant; tags: N-term 10xHis-GST; chain copies: 3; label: 5'-FAM (FITC) on both strands; blunt.
The target in data set [8] is T3, Udorn His-GST-ED WT. Described as above. As to conditions: protein: recombinant; tags: N-term 10xHis-GST; label: 5'-FAM (FITC) on both strands; blunt.
Data set [9] addresses T4, His-GST-RBD WT. The data set is described as above. As to conditions: protein: recombinant; tags: N-term 10xHis-GST; chain copies: 2; label: 5'-FAM (FITC) on both strands; blunt.
The target in data set [10] is T5, His-RBD WT. The data set is described as follows: fluorescence polarization; biphasic, first transition; […], pH 8.0, 1 h at room temperature; […]. As to conditions: protein: recombinant; tags: N-term 10xHis; chain copies: 2; label: 5'-FAM (FITC) on both strands; blunt.
For data set [11], the target named is T5, His-RBD WT. The data set is described as follows: fluorescence polarization; biphasic, second transition; […], pH 8.0, 1 h at room temperature; […]. As to conditions: protein: recombinant; tags: N-term 10xHis; chain copies: 2; label: 5'-FAM (FITC) on both strands; blunt.
For data set [12], the target named is T3, Udorn His-GST-ED WT. Briefly: fluorescence polarization; protein prep B, A260/280 0.85; […], pH 8.0, 1 h at room temperature; […]. The note with it: protein: recombinant; tags: N-term 10xHis-GST; label: 5'-FAM (FITC) on both strands; blunt.

The values that follow come from paper PMC11997982.

T5 sequence (Q99AU3 1-85): as above
T1 sequence (Q99AU3 1-85): as above

B1: FAM-dsRNA 16 bp (dsRNA)
RNA 1: CCAUCCUCUACAGGCG
RNA 2: CGCCUGUAGAGGAUGG
With B1, the dissociation constant Kd with GST-RBD WT [1] was found to be 100 ± 32 nM; with His-GST-ED WT [2], 3500 ± 800 nM; in the data set with Udorn His-GST-ED WT [3], 170 ± 35 nM; with His-GST-RBD WT [4], 180 ± 42 nM; with His-RBD WT [5] it was 55 ± 16 nM; with GST-RBD WT [6], 76 ± 5 nM. Also, the Kd with His-GST-ED WT [7] is 1900 ± 250 nM; with Udorn His-GST-ED WT [8], 180 ± 21 nM; with His-GST-RBD WT [9], 125 ± 9 nM; with His-RBD WT [10] it was 83 ± 11 nM; with His-RBD WT [11], 2160 ± 460 nM; with Udorn His-GST-ED WT [12], 196 ± 23 nM.

A word on the Kd: it is a measure of binding affinity in units of concentration.
